From patent publication US10800813 (Bicycle, dated 2020)
Like-named read-outs stand apart in the source and are kept apart here. Numbered stars: 1 amine (or outer) side, 2 acyl side, 3 side chain; on linkers, the order of the positions; unused ones are H or OH. Bridge positions count the residues as written; N and C are the ends. Square brackets hold non-standard residues; d marks the D form. TBMB = c1c(C[*:1])cc(C[*:3])cc1C[*:2]; NMeS = CN[C@@H](CO)C(=O)O; NMeA = CN[C@@H](C)C(=O)O

What was measured:
Assay in all cases: enzyme inhibition assay
human plasma Kallikrein [1] = biological target: T1, human plasma Kallikrein (human, UniProt P03952 20-638, limits assumed)
T1 construct: also called hPK; human PK
T1 sequence (P03952 20-638 limits assumed): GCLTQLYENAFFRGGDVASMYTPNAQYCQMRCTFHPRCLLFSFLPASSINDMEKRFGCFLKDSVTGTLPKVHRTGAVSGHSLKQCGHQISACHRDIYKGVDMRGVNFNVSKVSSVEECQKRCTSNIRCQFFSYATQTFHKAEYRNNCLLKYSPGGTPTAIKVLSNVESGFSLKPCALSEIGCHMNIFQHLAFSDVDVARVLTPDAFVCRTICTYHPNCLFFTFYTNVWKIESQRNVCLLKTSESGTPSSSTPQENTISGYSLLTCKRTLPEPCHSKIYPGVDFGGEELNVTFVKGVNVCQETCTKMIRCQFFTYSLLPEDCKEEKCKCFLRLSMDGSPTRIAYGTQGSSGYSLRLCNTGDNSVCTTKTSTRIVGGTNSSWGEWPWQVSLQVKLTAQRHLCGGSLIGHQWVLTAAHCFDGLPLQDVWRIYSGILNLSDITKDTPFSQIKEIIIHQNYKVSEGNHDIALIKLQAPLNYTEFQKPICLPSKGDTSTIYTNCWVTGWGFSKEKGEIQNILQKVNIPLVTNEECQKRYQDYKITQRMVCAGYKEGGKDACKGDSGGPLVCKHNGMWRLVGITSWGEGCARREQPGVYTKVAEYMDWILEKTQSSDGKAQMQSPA

human plasma Kallikrein [2] = biological target: T1, human plasma Kallikrein; remark: listed apart in the source
human plasma Kallikrein [3] = biological target: T1, human plasma Kallikrein; remark: listed apart in the source

B1: Ac-(06-34-18) Scram 4 (peptide)
peptide: Ac-CWARSPCLHQDLC-NH2
modifications: linker 1-7-13 via TBMB
SMILES: CC(=O)N[C@H]1CSCc2cc3cc(c2)CSC[C@H](NC(=O)[C@@H]2CCCN2C(=O)[C@H](CO)NC(=O)[C@H](CCCNC(=N)N)NC(=O)[C@H](C)NC(=O)[C@H](Cc2c[nH]c4ccccc24)NC1=O)C(=O)N[C@@H](CC(C)C)C(=O)N[C@@H](Cc1c[nH]cn1)C(=O)N[C@@H](CCC(N)=O)C(=O)N[C@@H](CC(=O)O)C(=O)N[C@@H](CC(C)C)C(=O)N[C@H](C(N)=O)CSC3
Ki (human plasma Kallikrein [1]): 67.5 µM

B2: Ac-(06-34-18) Scram 3 (peptide)
peptide: Ac-CAPWSRCLHQDLC-NH2
modifications: linker 1-7-13 via TBMB
SMILES: CC(=O)N[C@H]1CSCc2cc3cc(c2)CSC[C@H](NC(=O)[C@H](CCCNC(=N)N)NC(=O)[C@H](CO)NC(=O)[C@H](Cc2c[nH]c4ccccc24)NC(=O)[C@@H]2CCCN2C(=O)[C@H](C)NC1=O)C(=O)N[C@@H](CC(C)C)C(=O)N[C@@H](Cc1c[nH]cn1)C(=O)N[C@@H](CCC(N)=O)C(=O)N[C@@H](CC(=O)O)C(=O)N[C@@H](CC(C)C)C(=O)N[C@H](C(N)=O)CSC3
Ki (human plasma Kallikrein [1]): 1.89 µM

B3: Ac-(06-34-18) A2A3 (peptide)
peptide: Ac-CSAAARCLHQDLC-NH2
modifications: linker 1-7-13 via TBMB
SMILES: CC(=O)N[C@H]1CSCc2cc3cc(c2)CSC[C@H](NC(=O)[C@H](CCCNC(=N)N)NC(=O)[C@H](C)NC(=O)[C@H](C)NC(=O)[C@H](C)NC(=O)[C@H](CO)NC1=O)C(=O)N[C@@H](CC(C)C)C(=O)N[C@@H](Cc1c[nH]cn1)C(=O)N[C@@H](CCC(N)=O)C(=O)N[C@@H](CC(=O)O)C(=O)N[C@@H](CC(C)C)C(=O)N[C@H](C(N)=O)CSC3
Ki (human plasma Kallikrein [1]): 18.5 µM
fold reduction of binding against Ac-06-34-18(TMB)-NH2 (human plasma Kallikrein [2]): ~100000 fold

B4: Ac-(06-34-18) A2Q3 (peptide)
peptide: Ac-CSAQARCLHQDLC-NH2
modifications: linker 1-7-13 via TBMB
SMILES: CC(=O)N[C@H]1CSCc2cc3cc(c2)CSC[C@H](NC(=O)[C@H](CCCNC(=N)N)NC(=O)[C@H](C)NC(=O)[C@H](CCC(N)=O)NC(=O)[C@H](C)NC(=O)[C@H](CO)NC1=O)C(=O)N[C@@H](CC(C)C)C(=O)N[C@@H](Cc1c[nH]cn1)C(=O)N[C@@H](CCC(N)=O)C(=O)N[C@@H](CC(=O)O)C(=O)N[C@@H](CC(C)C)C(=O)N[C@H](C(N)=O)CSC3
Ki (human plasma Kallikrein [1]): 15.8 µM
fold reduction of binding against Ac-06-34-18(TMB)-NH2 (human plasma Kallikrein [2]): ~100000 fold

B5: Ac-(06-34-18) NMeSer1, NMeAla4 (peptide)
peptide: Ac-C[NMeS]WP[NMeA]RCLHQDLC-NH2
modifications: linker 1-7-13 via TBMB
SMILES: CC(=O)N[C@H]1CSCc2cc3cc(c2)CSC[C@H](NC(=O)[C@H](CCCNC(=N)N)NC(=O)[C@H](C)N(C)C(=O)[C@@H]2CCCN2C(=O)[C@H](Cc2c[nH]c4ccccc24)NC(=O)[C@H](CO)N(C)C1=O)C(=O)N[C@@H](CC(C)C)C(=O)N[C@@H](Cc1c[nH]cn1)C(=O)N[C@@H](CCC(N)=O)C(=O)N[C@@H](CC(=O)O)C(=O)N[C@@H](CC(C)C)C(=O)N[C@H](C(N)=O)CSC3
Ki (human plasma Kallikrein [3]): 0.444 µM

B6: Ac-(06-34-18) NMeSer1 (peptide)
peptide: Ac-C[NMeS]WPARCLHQDLC-NH2
modifications: linker 1-7-13 via TBMB
SMILES: CC(=O)N[C@H]1CSCc2cc3cc(c2)CSC[C@H](NC(=O)[C@H](CCCNC(=N)N)NC(=O)[C@H](C)NC(=O)[C@@H]2CCCN2C(=O)[C@H](Cc2c[nH]c4ccccc24)NC(=O)[C@H](CO)N(C)C1=O)C(=O)N[C@@H](CC(C)C)C(=O)N[C@@H](Cc1c[nH]cn1)C(=O)N[C@@H](CCC(N)=O)C(=O)N[C@@H](CC(=O)O)C(=O)N[C@@H](CC(C)C)C(=O)N[C@H](C(N)=O)CSC3
Ki (human plasma Kallikrein [3]): 0.0005 µM
